Results taken from patent US20080003199A1.

Target: recombinant mature rat IL-33 with N-terminal His-tag (rat) (UniProt Q66H70)
Test: cell-based or functional assay

Sequence of recombinant mature rat IL-33 with N-terminal His-tag (rat) (Q66H70 109-264): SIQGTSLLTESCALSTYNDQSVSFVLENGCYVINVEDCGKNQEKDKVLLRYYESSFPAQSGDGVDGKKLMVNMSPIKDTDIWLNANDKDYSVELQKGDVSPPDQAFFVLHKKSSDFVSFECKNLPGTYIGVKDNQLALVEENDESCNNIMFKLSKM

mouse soluble ST2 (R&D) (from UniProt P14719 27-337)
NF-κB promoter activity (luciferase reporter, % increase) in neonatal rat cardiomyocytes: 42%
